In paper PMC9181312:
pKd: −log10 of the molar value.

Molecular target: Human ACE2-hIgG1Fc (human) (UniProt Q9BYF1)
Assay: SPR

Chain of Human ACE2-hIgG1Fc (human) (Q9BYF1 18-740): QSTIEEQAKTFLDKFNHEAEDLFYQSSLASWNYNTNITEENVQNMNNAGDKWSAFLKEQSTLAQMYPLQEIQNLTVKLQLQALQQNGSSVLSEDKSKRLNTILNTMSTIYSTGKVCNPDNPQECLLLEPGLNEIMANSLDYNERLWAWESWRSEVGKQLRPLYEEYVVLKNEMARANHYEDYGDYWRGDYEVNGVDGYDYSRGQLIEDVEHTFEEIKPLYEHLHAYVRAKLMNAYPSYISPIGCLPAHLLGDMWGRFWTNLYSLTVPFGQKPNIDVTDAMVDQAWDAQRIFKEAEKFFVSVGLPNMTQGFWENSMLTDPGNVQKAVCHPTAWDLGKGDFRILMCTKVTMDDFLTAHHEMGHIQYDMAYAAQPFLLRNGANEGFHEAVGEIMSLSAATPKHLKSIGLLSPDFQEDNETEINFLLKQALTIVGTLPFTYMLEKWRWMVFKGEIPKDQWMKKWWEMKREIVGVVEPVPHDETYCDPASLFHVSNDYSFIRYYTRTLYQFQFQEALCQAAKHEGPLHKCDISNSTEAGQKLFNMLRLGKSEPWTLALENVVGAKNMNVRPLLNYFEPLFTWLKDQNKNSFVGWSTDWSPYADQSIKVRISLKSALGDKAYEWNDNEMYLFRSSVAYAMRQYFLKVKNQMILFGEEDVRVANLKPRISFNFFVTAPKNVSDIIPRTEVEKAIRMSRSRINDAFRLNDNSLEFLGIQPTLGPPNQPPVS

For Wuhan RBD, the pKd was 8.14 and the koff was 0.0051 s⁻¹.
